For one substance, binding signal (fold selectivity) results are on record in US7820412.

The series concerns MutS (MBP-MutS-H6 fusion) (Thermus aquaticus). Description: pulldown. Conditions: MutS selectivity factor M estimated by model from consensus shuffling error rates; 20 mM Tris-HCl pH 7.8, 10 mM NaCl, 5 mM MgCl2, 1 mM DTT, 5% glycerol, room ….

As to “re-hybridized GFPuv fragments (average 150 bp) containing synthesis-error mismatches”, the binding signal (fold selectivity) was 2.2.
